From US20200277375A1 (ULTRAHUMAN FOUR, published 2020)

T1: mouse CD47-Fc (mouse, UniProt Q61735 19-140, limits assumed)
T1 construct: Recombinant CD47-Fc; also called mCD47-Fc; mCD37-Fc [sic]; not shown: Fc part
T1 sequence (looked up): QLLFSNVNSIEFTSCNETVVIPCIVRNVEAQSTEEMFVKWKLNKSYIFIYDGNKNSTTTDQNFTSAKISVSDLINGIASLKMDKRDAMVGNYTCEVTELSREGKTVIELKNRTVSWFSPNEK


Key:
[1] = target: T2, cynomolgus monkey CD47 on transfected CHO-K1 cells (cynomolgus monkey, UniProt A0A5F8AK49 19-323 (rhesus entry)); test: flow cytometry, cyno CD47-transfected CHO-K1, FIG. 6
T2 construct: whole, on cells; also called cyno CD47+ cells
Procedure: (§1) FIG. 6A-FIG. 6C. Flow cytometric binding to human and cyno CD47+CHO-K1 cells. Commercial anti-CD47 antibody MS1991, human IgG1 (“I IgG1”) and IgG4 (“I IgG4”) Isotype controls, lead library-derived IgGs in both IgG1null (“IgG1N”) and IgG4(S228P) formats were examined for specific binding on cyno-transfected CHO-K1 cells (FIG. 6A), human-transfected CHO-K1 cells (FIG. 6B), and wild type (wt, i.e. untransfected) CHO-K1 cells (FIG. 6C). IgGs were tested at concentrations ranging from 24-100,000 ng/ml. Concentration-dependent binding was observed against both human and cyno cell lines for all CD47-specific antibodies but not Isotype controls.
(§2) Antibodies to CD47 were analysed for concentration-dependent binding at the cell surface via flow cytometry. CHO-K1 cells were stably transfected with either human, mouse or cyno CD47 full-length cDNAs. Anti-CD47 IgGs mVH/mVL, VH-A1/VL-B1, A-D5, G-B6, F-E7 and D-H3, and an isotype control IgG1 were then all tested in IgG1null and IgG4(S228P) formats, alongside a commercial mouse anti-human CD47 monoclonal MS1991, over a concentration range of 100,000-24 ng/ml for binding to human, cyno or wild type control (‘wt’, i.e. untransfected) CHO-K1.

[2] = target: T3, human CD47 on cells (human CD47-transfected CHO-K1; HL60) (human, UniProt Q08722 19-323); test: flow cytometry, human CD47-transfected CHO-K1, FIG. 6
T3 construct: whole, on cells; also called human CD47+ cells; human CD47+HL60 cells
Procedure: as §1, §2

human CD47-Fc [3] = target: T4, human CD47-Fc (human, UniProt Q08722 19-139); test: direct titration ELISA, FIG. 11A
T4 construct: Recombinant CD47-Fc; also called hCD47-Fc; not shown: Fc part
Procedure: (§3) FIG. 11A-FIG. 11C. Direct titration ELISA for A-D5.4-derived designer IgGs binding to human, mouse and cyno CD47-Fc proteins. Chimeric anti-CD47 (mVH/mVL), designer A-D5.4-derived clones in human IgG1 null format were titrated (in μg/ml) in a direct binding ELISA against human (FIG. 11A), cyno (FIG. 11B) and mouse (FIG. 11C) CD47-Fc proteins. […] In the figure legends, “IgG1NI” refers to IgG1 null isotype.
(§4) To coat Greiner Bio-One High bind ELISA plates, target proteins were diluted to 1 μg/ml in carbonate buffer and added at 100 μl per well, at 4° C., o/n. Coated plates were washed 3× with PBS pH7.4, blocked with 1% BSA in PBS (380 μl/well) for 1 hr at RT, then washed 3× with PBS-Tween 20 (PBST). CD47 antibodies (100 μl/well; diluted in PBST) were then added and then incubated 1 hr at RT. Plates were then washed 3× with PBST and goat anti-human kappa chain-HRP added (100 μl/well) at RT, for 1 hr. Plates were then washed 3× with PBST and twice with PBS before the addition of 100 μl TMB per well. Reactions were stopped by adding 100 μl 2M H₂SO₄/well and OD was read on a plate reader at 450 nm.

mouse CD47-Fc = target: T1, mouse CD47-Fc; test: direct titration ELISA, FIG. 11C
Procedure: as §3, §4

human CD47-Fc [4] = target: T4, human CD47-Fc; test: direct titration ELISA, FIG. 9A
Procedure: FIG. 9A-FIG. 9C. Direct titration ELISA for designer IgGs binding to human, mouse and cyno CD47-Fc proteins. Chimeric anti-CD47 (mVH/mVL), designer A-D5-derived clones in human IgG1null format were titrated (in μg/ml) in a direct binding ELISA against human (FIG. 9A), cyno (FIG. 9B) and mouse (FIG. 9C) CD47-Fc proteins. […] In the figure legend, “IgG1NI” refers to IgG1 null isotype.
as §4

| Binder | maximum MFI, fold over untransfected CHO-K1 [1] [fold] | maximum MFI, fold over untransfected CHO-K1 [2] [fold] | binding result (human CD47-Fc [4]) | further results |
| --- | --- | --- | --- | --- |
| G-B6 in human IgG4(S228P) format (antibody, V domains shown, IgG4(S228P), kappa; also called G-B6 IgG4) VH: EVQLVQSGAEVKKPGESLKISCKGSGYSFTNYYIFWVRQMPGKGLEWIGDINPVNGDTNFSPSFQGQVTISADKSISTAYLQWSSLKASDTAMYYCARGGYTMDKWGQGTLVTVSS VL: DIVMTQSPLSLPVTPGEPASISCRSSQSLVHSNGYTYLHWYLQKPGQSPQLLIYKGSYRASGVPDRFSGSGSGTDFTLKISRVEAEDVGVYYCSQNTQTPRTFGQGTKVEIK | > 10 | > 10 | – | – |
| F-E7 in human IgG4(S228P) format (antibody, V domains shown, IgG4(S228P), kappa; also called F-E7 IgG4) VH: EVQLVQSGAEVKKPGESLKISCKGSGYSFTNYYIFWVRQMPGKGLEWMGIINPVNGDTNYNPSFQGQVTISADKSISTAYLQWSSLKASDTAMYYCARGGYTMGKWGQGTLVTVSS VL: DIVMTQSPLSLPVTPGEPASISCRSSQSLVHSNGNTYLDWYLQKPGQSPQLLIYKGSYRFSGVPDRFSGSGSGTDFTLKISRVEAEDVGVYYCSQATHTPRTFGQGTKVEIK | > 10 | > 10 | – | – |
| A-D5.11 in human IgG1null format (antibody, V domains shown, Designer clone from A-D5.4; IgG1null) VH: EVQLVQSGAEVKKPGESLKISCKGSGYSFTNYYIFWVRQMPGKGLEWMGIINPVDGDTNYNPSFQGQVTISADKSISTAYLQWSSLKASDTAMYYCARGGYTMDRWGQGTLVTVSS VL: DIVMTQSPLSLPVTPGEPASISCRSSQSLLHSNGYNYLHWYLQKPGQSPQLLIYKVSNRLSGVPDRFSGSGSGTDFTLKISRVEAEDVGVYYCFQNTHTPRTFGQGTKVEIK | – | – | – | binding result (human CD47-Fc [3]): binds; binding result (mouse CD47-Fc): binds |
| A-D5.9 in human IgG1null format (antibody, V domains shown, Designer clone from A-D5; IgG1null) VH: EVQLVQSGAEVKKPGESLKISCKGSGYTFTNYYIFWVRQMPGKGLEWMGIINPVDGDTNYNPSFQGQVTISADKSISTAYLQWSSLKASDTAMYYCARGGYTMDRWGQGTLVTVSS VL: DIVMTQSPLSLPVTPGEPASISCRSSQSLLHSNGYTYLHWYLQKPGQSPQLLIYKVSNRLSGVPDRFSGSGSGTDFTLKISRVEAEDVGVYYCFQQTHTPRTFGQGTKVEIK | – | – | binds | – |
| D-H3 in human IgG4(S228P) format (antibody, V domains shown, IgG4(S228P), kappa; also called D-H3 IgG4) VH: EVQLVQSGAEVKKPGESLKISCKGSGYSFTNYYIFWVRQMPGKGLEWMGDINPVNGDTNYSPSFQGQVTISADKSISTAYLQWSSLKASDTAMYYCARGGYTPDYWGQGTLVTVSS VL: DIVMTQSPLSLPVTPGEPASISCRSSQSLLHSNGYNYLHWYLQKPGQSPQLLIYKGSNRFSGVPDRFSGSGSGTDFTLKISRVEAEDVGVYYCSQNLHVPRTFGQGTKVEIK | > 10 | > 10 | – | – |
| A-D5 in human IgG4(S228P) format (antibody, V domains shown, IgG4(S228P), kappa; also called IgG4 A-D5) VH: EVQLVQSGAEVKKPGESLKISCKGSGYTFTNYYIFWVRQMPGKGLEWMGIINPVDGDTNYNPSFQGQVTISADKSISTAYLQWSSLKASDTAMYYCARGGYTMDRWGQGTLVTVSS VL: DIVMTQSPLSLPVTPGEPASISCRSSQSLLHSNGYTYLHWYLQKPGQSPQLLIYKVSNRLSGVPDRFSGSGSGTDFTLKISRVEAEDVGVYYCFQNTHTPRTFGQGTKVEIK | > 10 | > 10 | – | – |
| A-D5.5 in human IgG1null format (antibody, V domains shown, Designer clone from A-D5; IgG1null) VH: EVQLVQSGAEVKKPGESLKISCKGSGYTFTNYYIFWVRQMPGKGLEWMGIINPVDGDTNYNPSFQGQVTISADKSISTAYLQWSSLKASDTAMYYCARGGYTMDRWGQGTLVTVSS VL: DIVMTQSPLSLPVTPGEPASISCRSSQSLLHSNGYNYLHWYLQKPGQSPQLLIYKGSNRLSGVPDRFSGSGSGTDFTLKISRVEAEDVGVYYCFQNTHTPRTFGQGTKVEIK | – | – | binds | – |
| A-D5.6 in human IgG1null format (antibody, V domains shown, Designer clone from A-D5; IgG1null) VH: EVQLVQSGAEVKKPGESLKISCKGSGYTFTNYYIFWVRQMPGKGLEWMGIINPVDGDTNYNPSFQGQVTISADKSISTAYLQWSSLKASDTAMYYCARGGYTMDRWGQGTLVTVSS VL: DIVMTQSPLSLPVTPGEPASISCRSSQSLLHSNGYNYLHWYLQKPGQSPQLLIYKGSNRLSGVPDRFSGSGSGTDFTLKISRVEAEDVGVYYCFQNTQTPRTFGQGTKVEIK | – | – | binds | – |
| VH-A1/VL-B1 in human IgG4(S228P) format (antibody, V domains shown, IgG4(S228P), kappa; also called VH-A1/VL-B1 IgG4) VH: EVQLVQSGAEVKKPGESLKISCKGSGYSFTNYYIFWVRQMPGKGLEWMGIINPVDGDTRYSPSFQGQVTISADKSISTAYLQWSSLKASDTAMYYCARGGFTMDYWGQGTLVTVSS VL: not shown | > 10 | > 10 | – | – |

More lines, main results first:

| maximum MFI, fold over untransfected CHO-K1 [1] [fold] | maximum MFI, fold over untransfected CHO-K1 [2] [fold] | binding result (human CD47-Fc [4]) | Binder | further results |
| --- | --- | --- | --- | --- |
| – | – | binds | A-D5.1 in human IgG1null format (antibody, V domains shown, Designer clone from A-D5; IgG1null) VH: EVQLVQSGAEVKKPGESLKISCKGSGYSFTNYYIFWVRQMPGKGLEWMGIINPVDGDTNYNPSFQGQVTISADKSISTAYLQWSSLKASDTAMYYCARGGYTMDRWGQGTLVTVSS VL: DIVMTQSPLSLPVTPGEPASISCRSSQSLLHSNGYTYLHWYLQKPGQSPQLLIYKVSNRLSGVPDRFSGSGSGTDFTLKISRVEAEDVGVYYCFQNTHTPRTFGQGTKVEIK | – |
| – | – | binds | A-D5.10 in human IgG1null format (antibody, V domains shown, Designer clone from A-D5; IgG1null) VH: EVQLVQSGAEVKKPGESLKISCKGSGYTFTNYYIFWVRQMPGKGLEWMGIINPVDGDTNYNPSFQGQVTISADKSISTAYLQWSSLKASDTAMYYCARGGYTMDRWGQGTLVTVSS VL: DIVMTQSPLSLPVTPGEPASISCRSSQSLLHSQGYTYLHWYLQKPGQSPQLLIYKVSNRLSGVPDRFSGSGSGTDFTLKISRVEAEDVGVYYCFQQTHTPRTFGQGTKVEIK | – |
| – | – | binds | A-D5.3 in human IgG1null format (antibody, V domains shown, Designer clone from A-D5; IgG1null) VH: EVQLVQSGAEVKKPGESLKISCKGSGYSFTNYYIFWVRQMPGKGLEWMGIINPVDGDTRYSPSFQGQVTISADKSISTAYLQWSSLKASDTAMYYCARGGYTMDRWGQGTLVTVSS VL: DIVMTQSPLSLPVTPGEPASISCRSSQSLLHSNGYTYLHWYLQKPGQSPQLLIYKVSNRLSGVPDRFSGSGSGTDFTLKISRVEAEDVGVYYCFQNTHTPRTFGQGTKVEIK | – |
| > 10 | > 10 | – | mVH/mVL (chimeric VxP037) in human IgG1null format (antibody, V domains shown, Murine v-domains on human IgG1null (IgG1 L234A/L235A/G237A), kappa; also called VP037; Chimeric anti-CD47) VH: EVQLQQFGAELVKPGASMKLSCKASGYTFTNYYVFWVKQRPGQGLEWIGDINPVNGDTNFNEKFKNKATLTVDKSSTTTYLQLSSLTSEDSAVYYCTRGGYTMDYWGQGTLVTVSS VL: DVVMTQTPLSLSVSLGDQASISCRSSQSLVHSNGNTYLHWYLQKPGQSPKLLIYKVSYRFSGVPDRFSGSGSGTDFTLKISRVEAEDLGVYFCSQNTHVPRTFGQGTKVEIK | binding result (mouse CD47-Fc): binds |
| > 10 | > 10 | – | mVH/mVL (chimeric VxP037) in human IgG4(S228P) format (antibody, V domains shown, IgG4 with S228P; also called mVH/mVL IgG4) VH: EVQLQQFGAELVKPGASMKLSCKASGYTFTNYYVFWVKQRPGQGLEWIGDINPVNGDTNFNEKFKNKATLTVDKSSTTTYLQLSSLTSEDSAVYYCTRGGYTMDYWGQGTLVTVSS VL: DVVMTQTPLSLSVSLGDQASISCRSSQSLVHSNGNTYLHWYLQKPGQSPKLLIYKVSYRFSGVPDRFSGSGSGTDFTLKISRVEAEDLGVYFCSQNTHVPRTFGQGTKVEIK | – |
